Common to all, as to assay type: cell-based, human
For one experiment, the system named is DU145 cells. Put plainly: Cell cycle analysis by flow cytometry. As to conditions: exogenous RNASE4 1 μg/ml. The method, then:
FIGS. 10A-E. RNASE4 induces prostate cancer cell proliferation and phosphorylation of AKT and S6. (A and B) Exogenous RNASE4 (1 μg/ml) stimulates cell proliferation (A) and cell cycle progression (B) of DU145 cells cultured in the presence of 2% FBS. Cell numbers were determined by MTT assay. […] (C) Time course of AKT and S6 phosphorylation of serum-starved DU145 cells by RNASE4 (1 μg/ml). Left panels, immunoblots; right panels, quantification of p-AKT and p-S6 normalized to total AKT and S6 by Image J analysis. […] Cells were pre-incubated with the inhibitors at the indicated concentrations for 1 hour prior to be stimulated by 1 μg/ml of RNASE4 for 5 minutes. Top panels, immunoblots; bottom panels, Image J quantification of p-AKT and p-S6 normalized to total AKT and S6. (E) Effect of AKT inhibitor MK-2206, PI3K inhibitors Wortmannin and LY294002, and mTOR inhibitor Rapamycin on RNASE4-induced cell proliferation. DU145 cells were serum-starved overnight, incubated with the inhibitors for 1 hour, and then treated with RNASE4 (1 μg/ml) for three days. Cell numbers were determined by MTT assay. Data shown are from a representative experiments in triplicates of 3 independent repeats. […]
FIGS. 17A-C. […] Cell numbers were determined by a Coulter counter. […] Cell cycle status was determined by flow cytometry. […] Bottom panels, tube length and number of loops counted from 5 randomly selected areas. […]
Background: Flow cytometry measures light scatter and fluorescence of single cells or particles in a stream.

The subject of the next experiment is LNCaP cells. In words: RNASE4 knockdown, cell proliferation (Coulter counter). Conditions: exogenous RNASE4 1 μg/ml. An excerpt:
FIGS. 15A-D. RNASE4 knockdown inhibits LNCaP cell proliferation in vitro and colony formation in soft agar. (A) Immunoblot analysis of RNASE4 in LNCaP cells stably transfected with shControl, shRNASE4-1, and shRNASE4-2. (B) qRT-PCR analysis of RNASE4 mRNA normalized to GAPDH in LNCaP cells stably transfected with shControl, shRNASE4-1, and shRNASE4-2. (C) Effect of RNASE4 knockdown on LNCaP cell proliferation. Cell numbers were counted by Coulter counter. Exogenous RNASE4, when presented, was at the concentration of 1 μg/ml. Data shown are from a representative experiment in triplicates of 3 independent experiments. (D) Effects of RNASE4 knockdown on colonies formation and growth of LNCaP cells in soft agar. The same numbers of control and RNASE4 knockdown cells were seeded in soft agar, and grown in the absence or presence of 1 μg/ml of RNASE4 for 14 days. Colonies were counted and size measured on a Nikon Eclipse ti microscope. Top panels, representative images of colonies; scale bars=100 μm. Bottom panels, quantification of LMCaP cell colonies and sizes in soft agar. Data shown are means±SEM of five randomly selected fields per dish from a representative experiment. **P≤0.01 and ***P≤0.001, by two-tailed Student's t test.
(§1) Lentiviral mediated shRNA system (pGIPZ, Open Biosystems) was used to generate control and RNASE4 knockdown cell lines. […]

The subject of another experiment is PC-3 cells. Put plainly: RNASE4 knockdown, colony formation in soft agar. As to conditions: PC-3, exogenous RNASE4 1 μg/ml, 14 days.
Source text: FIGS. 13A-D. RNASE4 knockdown reduces prostate cancer cell proliferation in vitro and colony formation in soft agar. (A) Immunoblot analysis of RNASE4 in PC-3 cells stably transfected with shControl, shRNASE4-1, and shRNASE4-2. (B) qRT-PCR analysis of RNASE4 mRNA normalized to GAPDH in PC-3 cells stably transfected with shControl, shRNASE4-1, and shRNASE4-2. (C) Effect of RNASE4 knockdown on cell proliferation. Cell numbers were counted by a Coulter counter. Exogenous RNASE4, when presented, was at the concentration of 1 μg/ml. Data shown are from representative experiment (in triplicates) of 3 independent repeats. (D) Effects of RNASE4 knockdown on colonies formation and growth of PC-3 cells in soft agar. The same numbers of control and RNASE4 knockdown cells were seeded in soft agar, and grown in the absence or presence of 1 μg/ml of RNASE4 for 14 days. Colonies were counted and size measured on a Nikon Eclipse ti microscope. Left panels, representative images of colonies; scale bars=100 μm. Right panels, quantification of colony numbers and sizes. Data shown are means±SEM from five randomly selected fields per dish from a representative experiment. *P≤0.05, **P≤0.01, and ***P≤0.001, by two-tailed Student's t test.
as §1

B1: RNASE4: recombinant human RNASE4 protein from pET11 expression in E. coli, purified by reversed-phase HPLC; added exogenously (protein, UniProt P34096 29-147, looked up)
Ribonuclease 4: QDGMYQRFLRQHVHPEETGGSDRYCNLMMQRRKMTLYHCKRFNTFIHEDIWNIRSICSTTNIQCKNGKMNCHEGVVKVTDCRDTGSSRAPNCRYRAIASTRRVVIACEGNPQVPVHFDG
For B1, in the experiment on DU145 cells, the G0/G1 population entry is given as “decreased” and the G2/S/M phase population entry is on record as “increased”. The “rescue of the effect of RNASE4 knockdown on cell proliferation” value in the experiment with LNCaP cells is listed as “able to rescue”. In addition, the “rescue of the effect of RNASE4 knockdown on colony formation” value with PC-3 cells was “able to rescue”.

The record behind these values is patent US11739161B2, “Methods for treating and diagnosing prostate cancer” (Tufts Medical Center, Inc., priority 2017, dated 2023).
